Test results published in patent publication WO2024019110A1 (dated 2024).

B1: recombinant Fab protein of antibody No. 6 (Fab, V domains shown)
VH: QVQLVQSGPEVKKPGTSVKVSCKASGFTFYYSAVQWVRQARGQRLEWLGWMAVGSGKANYAQKFQERLTLTRDMSTSTAYMELSSLRSEDTAVYYCAAPNCTGGSCYDGFNLWGQGTVVTVSS
VL: EIVLTQSPGTLSLSPGDRAILSCRASQTVNSNYLAWYQQKPGQAPRLLIYGTSSRATGIPDRFSGSGSGTDFTLTISRLEPEDFAVYYCQQYGSSPWLFGQGTKVEIK
B2: recombinant Fab protein of antibody No. 2 (Fab, V domains shown)
VH: EVQLVESGGGVVQPGRSLRLSCAASGFKFSKFAMHWVRQAPGKGPEWVAVISYDGNQYHSADSVKGRFTISRDNSFNTLYLQMNSLGPEDTAVYYCARDGPDTSGYYANIYFDFWGQGTLVTVSS
VL: QSVLTQPPSVSGAPGQRVTISCTGSSSNIGAGYDVHWYQQLPGRAPKLLIFDNNNRPSGVPDRFSGSKSGTSASLAITGLQTEDEAYYYCQSYDNSLILAVFGGGTKVTVL
B3: recombinant Fab protein of antibody No. 5 (Fab, V domains shown)
VH: EVQLVESGGGLVQPGGSLRLSCAASGFTFYSYWMTWVRQAPGKGLEWVANIKHDESESHYVDSVRGRFTISRDNAKNSVYLQMKGLRAEDTAVYYCARDGGYNILTAYYHAPSYWGQGTLVTVSS
VL: QSALTQPASVSGSPGQSITISCTGTSSDVGGYNFVSWYRQYPGKAPQLMIYDVSRRPSGDSDRFSGSKSGNTASLTISGLQAEDEAEYHCSSYTGRSPYVVFGGGTKVTVL
B4: recombinant Fab protein of antibody No. 7 (Fab, V domains shown)
VH: EVQLLESGGGLVQPGGSLRLSCAASGFTFSRYALSWVRQAPGKGLEWVSAISGAAITTYYADSVKGRFTISRDDSRNTLFMQMDSLRAEDTAVYYCAKGDYYDSSGYLAEYFPHWGQGTLVTVSS
VL: SYELTQPPSVSVSPGQTARITCFADALPKQHAYWYQQKAGQAPVLVIFKDTERPSGIPKRFSGSRSGATVTLTISGVQAEDEADYYCQSTDISGVLFGGGTKLTVL

Target: Wuhan strain RBD (Ancestral), biotinylated (SARS-CoV-2 (Wuhan strain), UniProt P0DTC2 331-529)
Experiment: BLI (Octet), biotinylated RBD on streptavidin biosensor, Fab in solution

Binder	Kd [nM]
B1	≤ 100
B2	≤ 100
B3	≤ 100
B4	≤ 100
